Experimental findings from publication doi:10.1101/495820 are described below.

The target of this series is T1, SmcH-CC100 (Bacillus subtilis, UniProt P51834 400-774).
T1 sequence: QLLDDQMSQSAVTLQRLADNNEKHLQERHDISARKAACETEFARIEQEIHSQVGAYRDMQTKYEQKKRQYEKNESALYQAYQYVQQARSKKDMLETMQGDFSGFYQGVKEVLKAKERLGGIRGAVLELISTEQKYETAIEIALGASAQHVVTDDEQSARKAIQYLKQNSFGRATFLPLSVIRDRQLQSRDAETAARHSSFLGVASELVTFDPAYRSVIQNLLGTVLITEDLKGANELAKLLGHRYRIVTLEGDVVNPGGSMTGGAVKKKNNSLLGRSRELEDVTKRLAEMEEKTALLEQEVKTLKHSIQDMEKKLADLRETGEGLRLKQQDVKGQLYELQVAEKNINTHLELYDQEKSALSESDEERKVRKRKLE
Nature of the series: fluorescence anisotropy.

B1: 40 bp random-sequence dsDNA (dsDNA)
DNA 1: TTAGTTGTTCGTAGTGCTCGTCTGGCTCTGGATTACCCGC
DNA 2: GCGGGTAATCCAGAGCCAGACGAGCACTACGAACAACTAA
In the case of B1, the binding result is “binds”.
